Results on nine molecules are retold here after PMC11385703 (Structure(London, England:1993), 2024).

What all share (conditions): both partners purified
In assay [1] the target is biotinylated myotoxin II (Bothrops asper, UniProt P24605, biotin (EZ-Link NHS-PEG4-Biotin, 1:1.25 toxin:reagent molar ratio)). Briefly: BLI. Background: Biolayer interferometry detects binding as a change in optical thickness at a sensor tip.
For assay [2], the target named is T1, myotoxin II (Bothrops asper, UniProt P24605).
T1 construct: source: purified from the venom of B. asper (CM-Sephadex C25, RP-HPLC)
Briefly: […] (1:20) in PBS pH 7.4 and pH 6, 1 h at room temperature.

Assay [3] addresses T2, α-cobratoxin, biotinylated (Naja kaouthia, UniProt P01391, biotin (EZ-Link NHS-PEG4-Biotin, 1:1.25 toxin:biotinylation reagent molar ratio)). Briefly: BLI; […]) biosensors; […]; dissociation for 600 s in HEPES-MES pH 3.5; 25°C; 1:1 binding model, […].
Assay [4] addresses T2, α-cobratoxin, biotinylated. Description: BLI; […]) biosensors; […]; dissociation for 600 s in HEPES-MES pH 4.0; 25°C; 1:1 binding model, […].
In assay [5] the target is T2, α-cobratoxin, biotinylated. Description: BLI; […]) biosensors; […]; dissociation for 600 s in HEPES-MES pH 4.5; 25°C; 1:1 binding model, […].
Assay [6] deals with T2, α-cobratoxin, biotinylated. Briefly: BLI; […]) biosensors; […]; dissociation for 600 s in HEPES-MES pH 5.0; 25°C; 1:1 binding model, […].
For assay [7], the target named is T2, α-cobratoxin, biotinylated. Briefly: BLI; […]) biosensors; […]; dissociation for 600 s in HEPES-MES pH 5.5; 25°C; 1:1 binding model, […].
Assay [8] has as its target T2, α-cobratoxin, biotinylated. Briefly: BLI; […]) biosensors; […]; dissociation for 600 s in HEPES-MES pH 6.0; 25°C; 1:1 binding model, […].
Assay [9] addresses T2, α-cobratoxin, biotinylated. Briefly: BLI; […]) biosensors; […]; dissociation for 600 s in HEPES-MES pH 6.5; 25°C; 1:1 binding model, […].
The target of assay [10] is T2, α-cobratoxin, biotinylated. Briefly: BLI; […]) biosensors; […]; dissociation for 600 s in HEPES-MES pH 7.4; 25°C; 1:1 binding model, […].
Assay [11] deals with T2, α-cobratoxin, biotinylated. Briefly: BLI; […]) biosensors; […]; association in HEPES-MES pH 7.4 for 300 s, dissociation in HEPES-MES pH 5.5 for 600 s; 1:1 binding model, […].
Assay [12] has as its target T3, α-cobratoxin (Naja kaouthia, UniProt P01391).
T3 construct: source: bought: Latoxan
Briefly: SPR; […] (Biacore 8K, 25°C); […]; dissociation 300 s in running buffer of pH 7.4 or 5.5. For orientation: SPR reads the build-up and loss of mass on a sensor chip optically.

Assay [13] deals with T4, biotinylated α-cobratoxin (Naja kaouthia, UniProt P01391).
T4 construct: source: bought: Latoxan, then biotinylated
Briefly: BLI.

Assay [14] addresses T2, α-cobratoxin, biotinylated. Briefly: BLI; […]) biosensors; […]; association in HEPES-MES pH 7.4 for 300 s, dissociation in HEPES-MES pH 7.4 for 600 s; 1:1 binding model, […].

Changes are numbered by the printed parent chain.

T2 sequence (P01391 whole entry): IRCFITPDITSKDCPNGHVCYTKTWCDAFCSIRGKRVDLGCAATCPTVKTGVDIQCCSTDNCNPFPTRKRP
Chain of biotinylated myotoxin II (P24605 17-137): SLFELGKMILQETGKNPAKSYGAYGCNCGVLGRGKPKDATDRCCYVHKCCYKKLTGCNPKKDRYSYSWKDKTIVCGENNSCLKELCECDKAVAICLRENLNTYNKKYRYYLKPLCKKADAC
T4 sequence (P01391 whole entry): as the sequence (P01391 whole entry) above
T1 sequence (P24605 17-137): as the sequence (P24605 17-137) above

B1: IgG: TPL0039_05_E02-YTE (antibody, V domains shown)
VH: QVQLLESGGGLVQPGRSLRLSCAASGFTFSSYGLHWVRQAPGKGLEWVAVISYDGSNKYYADSVKGRFTISRDNSKNTLYLQMNSLRAEDTAVYYCASTLQQLDAFDIWGQGTLVTVSS
VL: NFMLTQPHSVSESPGKTVTISCTRSSGSIASNYVQWYQQRPGTSPTIMIYEDNQRPSGVPDRFSGAIDSSSNSASLTISGLKTEDEADYYCQSYDSSSVVFGGGTKVTVL
notes: copies: 2 + 2
The term Kd denotes a measure of binding affinity in units of concentration. What is called koff is a measure of how fast the partners let go of each other. As to B1, in assay [1], the Kd is less than 1 pM and the koff was less than 1e-07 s⁻¹.

B2: IgG: TPL0039_05_B04-YTE (antibody, V domains shown)
VH: EVQLLESGGGVVQPGRSLRLSCAASGFTFSSYGMHWVRQAPGKGLEWVAVISYDGSNKYYADSVKGRFTISRDNSKNTLYLQMNSLRAEDTAVYYCARVGENEAFDIWGQGTMVTVSS
VL: B1 VL with S31R, T43S, S44A, I47T, M48V, A66S, S98T, V107L
notes: also called IgG1 B04-YTE; source: CHO cells, transiently expressed, purified; copies: 2 + 2
In general, stoichiometry N refers to a count of units in the complex or per binding partner. B2: the “stoichiometry N” value in [2] turned out to be 2 antigen per IgG1.

B3: IgG: TPL0039_05_B12-YTE (antibody, V domains shown)
VH: B2 VH with L5V, R98G, V99W, G100T, N102G, E103D, M113L
VL: B1 VL with T43S, S44A, T46S, I47T, M48V, Q54R, A66S, S70A, V107I
notes: copies: 2 + 2
In the case of B3, in assay [1], the equilibrium dissociation constant (Kd) is less than 1 pM.

B4: 2554_01_D11 Fab (Fab, V domains shown)
VH: QVQLVQSGAEVKKPGSSVKVSCKASGGTFSSYAISWVRQAPGQGLEWMGGIIPIFGTANYAQKFQGRVTITADESTSTAYMELRSLRSDDTAVYYCARDNLGYCSGGSCYSDYYYYYMDVWGQGTLVTVSS
VL: NFMLTQPRSVSESPGKTVTISCTRSSGSIGSDYVHWYQQRPGSSPTTVIYEDNQRPSGVPDRFSGSIDSSSNSASLTISGLKTEDEADYYCQSYDRSNHEVVFGGGTKLTVL
One may read the kon as a measure of how fast the partners come together. Consider B4, for which the koff in assay [3] worked out at 0.0036 s⁻¹; in assay [4], 0.001 s⁻¹; in assay [5], 0.00065 s⁻¹; in assay [6] it was 0.00043 s⁻¹; in assay [7] it was 0.00039 s⁻¹; in assay [8], 0.0003 s⁻¹. The values for the koff in assay [9], in assay [10] and in [11] were 0.00027 s⁻¹, 0.00026 s⁻¹ and 0.0004 s⁻¹, respectively. Also, the Kd in [11] was found to be 8.7 nM. Also, in [11], the association rate constant (kon) is 46000 M⁻¹ s⁻¹.

B5: IgG: 2555_01_A01-YTE (antibody, V domains shown)
VH: B4 VH
VL: SYELTQPPSVSVAPGRTATITCEGDNIGQQIVHWYQQKPGQAPVAVISSDSDRPSGIPERFSGSNSGNTATLTISRVEAGDEADYYCQVWDSGSDHVVFGGGTKVTVL
notes: also called IgG1 A01; source: CHO cells, transiently expressed, purified; copies: 2 + 2
Regarding B5, the binding result in [12] was “binds”.

B6: Fab: 2555_01_A01 (Fab, V domains shown)
VH: B4 VH
VL: B5 VL
notes: also called Fab A01; source: purified
Turning to B6, the binding result in assay [13] is reported as “binds”.

B7: Fab: 2554_01_D11 (Fab, V domains shown)
VH: B4 VH
VL: B4 VL
notes: also called Fab D11; source: purified
Consider B7, for which, in assay [13], the binding result was “binds”.

B8: TPL0197_01_C08 Fab (Fab, V domains shown)
VH: EVQLVQSGAEVKKPGASVKVSCKASGYTFTSYGISWVRQAPGQGLEWMGWISAYNGNTNYAQKLQGRVTMTTDTSTSTAYMELRSLRSDDTAVYYCAREEYCSSTSCYVGNYYGMDVWGQGTLVTVSS
VL: DIQMTQSPSSLSASVGDRVTITCQASQDISNYLNWYQQKPGKAPKLLIYAASSLESGVPSRFSGSGSGTEFTLTITNLQVDDFATYYCQRYDSNFAFGQGTKVEIK
With B8, the koff in [3] came out at 1.2 s⁻¹; in assay [4] it was 0.28 s⁻¹; in [5] it was 0.054 s⁻¹; in assay [6], 0.0073 s⁻¹; in assay [7], 0.0041 s⁻¹; in [8] it was 0.0015 s⁻¹. Also, the koff is 0.00077 s⁻¹ in assay [9], 0.00069 s⁻¹ in assay [10], 0.0058 s⁻¹ in assay [11] and 0.00085 s⁻¹ in assay [14]. Moreover, the kon came out at 3800 M⁻¹ s⁻¹ in [11] and 11000 M⁻¹ s⁻¹ in assay [14]. The Kd in assay [14] stood at 64 nM.

B9: IgG: TPL0197_01_C08-YTE (antibody, V domains shown)
VH: B8 VH
VL: B8 VL
notes: also called IgG1 C08; source: CHO cells, transiently expressed, purified; copies: 2 + 2
As for B9, the binding result in assay [12] is reported as “binds”.
